Article PMC11227718

Key:
[1] = cycloheximide chase, immunoblot
[2] = immunoblot of endogenous CCDC88C, BT549; conditions: glycan gained; control: empty vector
[3] = immunoblot of endogenous CCDC88C; conditions: glycan lost; control: negative control siRNA

| Substance | degradation_or_half_life ([1]; glycan gained, control: empty vector) | expression_or_secretion [2] | degradation_or_half_life ([1]; glycan lost, control: negative control siRNA) | expression_or_secretion [3] |
| --- | --- | --- | --- | --- |
| Coiled-coil domain containing 88C (CCDC88C, Daple): GALNT6 overexpression | increases | increases | – | – |
| Coiled-coil domain containing 88C (CCDC88C, Daple): si-GALNT6 | – | – | decreases | decreases |
